Earlier results as cited in article PMC8820802.

System: streptavidin
Conditions: 50 mM Tris-HCl pH 7.6, 10 mM MgCl2, 100 mM KCl, 10% glycerol, 0.05% NP-40, protease inhibitor; HEK293T lysate on streptavidin-Sepharose, 16 h, 4 C

Row | Substance | Kd [nM]
1 | S1m aptamer | 29
2 | S1 aptamer | 79
